Ends that are not written are not given here. * marks the point of attachment. C16 diacid = O=C(O)CCCCCCCCCCCCCCC(=O)*
T1: human GIP receptor (human, UniProt P48546 22-466)
T1 sequence (looked up): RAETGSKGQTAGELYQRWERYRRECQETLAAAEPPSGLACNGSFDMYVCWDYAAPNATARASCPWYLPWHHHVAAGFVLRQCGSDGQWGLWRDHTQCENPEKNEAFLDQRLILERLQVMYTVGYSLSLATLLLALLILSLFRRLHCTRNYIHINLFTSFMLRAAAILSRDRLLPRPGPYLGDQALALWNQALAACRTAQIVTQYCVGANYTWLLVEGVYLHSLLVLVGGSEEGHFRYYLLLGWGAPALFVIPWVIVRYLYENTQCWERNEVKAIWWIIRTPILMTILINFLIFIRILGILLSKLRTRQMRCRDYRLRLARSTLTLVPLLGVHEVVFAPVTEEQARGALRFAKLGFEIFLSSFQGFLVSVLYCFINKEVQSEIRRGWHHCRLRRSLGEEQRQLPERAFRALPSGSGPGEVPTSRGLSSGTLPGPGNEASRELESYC

B1: AT309 [hGIP(3-30)NH2[Q20K]-C16diacid/20] (peptide)
peptide: EGTFISDYSIAMDKIHQK(C16 diacid)DFVNWLLAQK-NH2
modifications: N-terminus assumed
SMILES: CC[C@H](C)[C@H](NC(=O)[C@H](CO)NC(=O)[C@H](Cc1ccc(O)cc1)NC(=O)[C@H](CC(=O)O)NC(=O)[C@H](CO)NC(=O)[C@@H](NC(=O)[C@H](Cc1ccccc1)NC(=O)[C@@H](NC(=O)CNC(=O)[C@@H](N)CCC(=O)O)[C@@H](C)O)[C@@H](C)CC)C(=O)N[C@@H](C)C(=O)N[C@@H](CCSC)C(=O)N[C@@H](CC(=O)O)C(=O)N[C@@H](CCCCN)C(=O)N[C@H](C(=O)N[C@@H](Cc1c[nH]cn1)C(=O)N[C@@H](CCC(N)=O)C(=O)N[C@@H](CCCCNC(=O)CCCCCCCCCCCCCCC(=O)O)C(=O)N[C@@H](CC(=O)O)C(=O)N[C@@H](Cc1ccccc1)C(=O)N[C@H](C(=O)N[C@@H](CC(N)=O)C(=O)N[C@@H](Cc1c[nH]c2ccccc12)C(=O)N[C@@H](CC(C)C)C(=O)N[C@@H](CC(C)C)C(=O)N[C@@H](C)C(=O)N[C@@H](CCC(N)=O)C(=O)N[C@@H](CCCCN)C(N)=O)C(C)C)[C@@H](C)CC
B2: AT306 [hGIP(3-30)NH2[D15K]-C16diacid/15] (peptide)
peptide: EGTFISDYSIAMK(C16 diacid)KIHQQDFVNWLLAQK-NH2
modifications: N-terminus assumed
SMILES: CC[C@H](C)[C@H](NC(=O)[C@H](CO)NC(=O)[C@H](Cc1ccc(O)cc1)NC(=O)[C@H](CC(=O)O)NC(=O)[C@H](CO)NC(=O)[C@@H](NC(=O)[C@H](Cc1ccccc1)NC(=O)[C@@H](NC(=O)CNC(=O)[C@@H](N)CCC(=O)O)[C@@H](C)O)[C@@H](C)CC)C(=O)N[C@@H](C)C(=O)N[C@@H](CCSC)C(=O)N[C@@H](CCCCNC(=O)CCCCCCCCCCCCCCC(=O)O)C(=O)N[C@@H](CCCCN)C(=O)N[C@H](C(=O)N[C@@H](Cc1c[nH]cn1)C(=O)N[C@@H](CCC(N)=O)C(=O)N[C@@H](CCC(N)=O)C(=O)N[C@@H](CC(=O)O)C(=O)N[C@@H](Cc1ccccc1)C(=O)N[C@H](C(=O)N[C@@H](CC(N)=O)C(=O)N[C@@H](Cc1c[nH]c2ccccc12)C(=O)N[C@@H](CC(C)C)C(=O)N[C@@H](CC(C)C)C(=O)N[C@@H](C)C(=O)N[C@@H](CCC(N)=O)C(=O)N[C@@H](CCCCN)C(N)=O)C(C)C)[C@@H](C)CC
B3: AT305 [hGIP(3-30)NH2[M14K]-C16diacid/14] (peptide)
peptide: EGTFISDYSIAK(C16 diacid)DKIHQQDFVNWLLAQK-NH2
modifications: N-terminus assumed
SMILES: CC[C@H](C)[C@H](NC(=O)[C@H](CO)NC(=O)[C@H](Cc1ccc(O)cc1)NC(=O)[C@H](CC(=O)O)NC(=O)[C@H](CO)NC(=O)[C@@H](NC(=O)[C@H](Cc1ccccc1)NC(=O)[C@@H](NC(=O)CNC(=O)[C@@H](N)CCC(=O)O)[C@@H](C)O)[C@@H](C)CC)C(=O)N[C@@H](C)C(=O)N[C@@H](CCCCNC(=O)CCCCCCCCCCCCCCC(=O)O)C(=O)N[C@@H](CC(=O)O)C(=O)N[C@@H](CCCCN)C(=O)N[C@H](C(=O)N[C@@H](Cc1c[nH]cn1)C(=O)N[C@@H](CCC(N)=O)C(=O)N[C@@H](CCC(N)=O)C(=O)N[C@@H](CC(=O)O)C(=O)N[C@@H](Cc1ccccc1)C(=O)N[C@H](C(=O)N[C@@H](CC(N)=O)C(=O)N[C@@H](Cc1c[nH]c2ccccc12)C(=O)N[C@@H](CC(C)C)C(=O)N[C@@H](CC(C)C)C(=O)N[C@@H](C)C(=O)N[C@@H](CCC(N)=O)C(=O)N[C@@H](CCCCN)C(N)=O)C(C)C)[C@@H](C)CC
B4: AT307 [hGIP(3-30)NH2[I17K]-C16diacid/17] (peptide)
peptide: EGTFISDYSIAMDKK(C16 diacid)HQQDFVNWLLAQK-NH2
modifications: N-terminus assumed
SMILES: CC[C@H](C)[C@H](NC(=O)[C@H](CO)NC(=O)[C@H](Cc1ccc(O)cc1)NC(=O)[C@H](CC(=O)O)NC(=O)[C@H](CO)NC(=O)[C@@H](NC(=O)[C@H](Cc1ccccc1)NC(=O)[C@@H](NC(=O)CNC(=O)[C@@H](N)CCC(=O)O)[C@@H](C)O)[C@@H](C)CC)C(=O)N[C@@H](C)C(=O)N[C@@H](CCSC)C(=O)N[C@@H](CC(=O)O)C(=O)N[C@@H](CCCCN)C(=O)N[C@@H](CCCCNC(=O)CCCCCCCCCCCCCCC(=O)O)C(=O)N[C@@H](Cc1c[nH]cn1)C(=O)N[C@@H](CCC(N)=O)C(=O)N[C@@H](CCC(N)=O)C(=O)N[C@@H](CC(=O)O)C(=O)N[C@@H](Cc1ccccc1)C(=O)N[C@H](C(=O)N[C@@H](CC(N)=O)C(=O)N[C@@H](Cc1c[nH]c2ccccc12)C(=O)N[C@@H](CC(C)C)C(=O)N[C@@H](CC(C)C)C(=O)N[C@@H](C)C(=O)N[C@@H](CCC(N)=O)C(=O)N[C@@H](CCCCN)C(N)=O)C(C)C
B5: AT308 [hGIP(3-30)NH2[Q19K]-C16diacid/19] (peptide)
peptide: EGTFISDYSIAMDKIHK(C16 diacid)QDFVNWLLAQK-NH2
modifications: N-terminus assumed
SMILES: CC[C@H](C)[C@H](NC(=O)[C@H](CO)NC(=O)[C@H](Cc1ccc(O)cc1)NC(=O)[C@H](CC(=O)O)NC(=O)[C@H](CO)NC(=O)[C@@H](NC(=O)[C@H](Cc1ccccc1)NC(=O)[C@@H](NC(=O)CNC(=O)[C@@H](N)CCC(=O)O)[C@@H](C)O)[C@@H](C)CC)C(=O)N[C@@H](C)C(=O)N[C@@H](CCSC)C(=O)N[C@@H](CC(=O)O)C(=O)N[C@@H](CCCCN)C(=O)N[C@H](C(=O)N[C@@H](Cc1c[nH]cn1)C(=O)N[C@@H](CCCCNC(=O)CCCCCCCCCCCCCCC(=O)O)C(=O)N[C@@H](CCC(N)=O)C(=O)N[C@@H](CC(=O)O)C(=O)N[C@@H](Cc1ccccc1)C(=O)N[C@H](C(=O)N[C@@H](CC(N)=O)C(=O)N[C@@H](Cc1c[nH]c2ccccc12)C(=O)N[C@@H](CC(C)C)C(=O)N[C@@H](CC(C)C)C(=O)N[C@@H](C)C(=O)N[C@@H](CCC(N)=O)C(=O)N[C@@H](CCCCN)C(N)=O)C(C)C)[C@@H](C)CC
B6: AT370 [hGIP(3-30)NH2-C16diacid/16] (peptide)
peptide: EGTFISDYSIAMDK(C16 diacid)IHQQDFVNWLLAQK-NH2

Molecular target: T1, human GIP receptor
Test: cell-based or functional assay

Row | Binder | cAMP antagonism, log (IC50) [log M] | cAMP antagonism, nM (IC50) [nM] | cAMP agonism, EC50 (log) [log M] | cAMP agonism, Emax [%] | cAMP agonism, nM (EC50) [nM]
1 | B1 | -7.4 | 36 | – | – | –
2 | B2 | -7.3 | 53 | -7.9 | 6.6 | 13
3 | B3 | -6.8 | 166 | -8.1 | 12 | 8
4 | B4 | -7 | 93 | -7.9 | 4.9 | 14
5 | B5 | -6.9 | 132 | -7.5 | 7.9 | 34
6 | B6 | -7.6 | 24.9 | – | – | –

Reference: patent publication US20200087373A1 (UNIVERSITY OF COPENHAGEN, published 2020)
